# Test results taken from IntAct's records for PubMed 19379695.
# B1: E3 ubiquitin-protein ligase SMURF2 (Mus musculus), A2A5Z6 (parent)
# chain: MSNPGGRRNGPVKLRLTVLCAKNLVKKDFFRLPDPFAKVVVDGSGQCHSTDTVKNTLDPKWNQHYDLYIGKSDSVTISVWNHKKIHKKQGAGFLGCVRLLSNAINRLKDTGYQRLDLCKLGPNDNDTVRGQIVVSLQSRDRIGTGGQVVDCSRLFDNDLPDGWEERRTASGRIQYLNHITRTTQWERPTRPASEYSSPGRPLSCFVDENTPITGTNGATCGHSSDPRLAERRVRSQRHRNYMSRTHLHTPPDLPEGYEQRTTQQGQVYFLHTQTGVSTWHDPRVPRDLSNINCEELGPLPPGWEIRNTATGRVYFVDHNNRTTQFTDPRLSANLHLVLNRQNQLKDQQQQQVVPLCPDDTECLTVPRYKRDLVQKLKILRQELSQQQPQAGHCRIEVSREEIFEESYRQVMKMRPKDLWKRLMIKFRGEEGLDYGGVAREWLYLLSHEMLNPYYGLFQYSRDDIYTLQINPDSAVNPEHLSYFHFVGRIMGMAVFHGHYIDGGFTLPFYKQLLGKSITLDDMELVDPDLHNSLVWILENDITGVLDHTFCVEHNAYGEIIQHELKPNGKSIPVTEENKKEYVRLYVNWRFLRGIEAQFLALQKGFNEVIPQHLLKTFDEKELELIICGLGKIDVSDWKVNTRLKHCTPDSNVVKWFWKAVEFFDEERRARLLQFVTGSSRVPLQGFKALQGAAGPRLFTIHQIDACTNNLPKAHTCFNRIDIPPYESYEKLYEKLLTAIEETCGFAVE
# B2: E3 ubiquitin-protein ligase SMURF2 (Mus musculus), A2A5Z6 (parent)
# chain: B1 chain
# partner: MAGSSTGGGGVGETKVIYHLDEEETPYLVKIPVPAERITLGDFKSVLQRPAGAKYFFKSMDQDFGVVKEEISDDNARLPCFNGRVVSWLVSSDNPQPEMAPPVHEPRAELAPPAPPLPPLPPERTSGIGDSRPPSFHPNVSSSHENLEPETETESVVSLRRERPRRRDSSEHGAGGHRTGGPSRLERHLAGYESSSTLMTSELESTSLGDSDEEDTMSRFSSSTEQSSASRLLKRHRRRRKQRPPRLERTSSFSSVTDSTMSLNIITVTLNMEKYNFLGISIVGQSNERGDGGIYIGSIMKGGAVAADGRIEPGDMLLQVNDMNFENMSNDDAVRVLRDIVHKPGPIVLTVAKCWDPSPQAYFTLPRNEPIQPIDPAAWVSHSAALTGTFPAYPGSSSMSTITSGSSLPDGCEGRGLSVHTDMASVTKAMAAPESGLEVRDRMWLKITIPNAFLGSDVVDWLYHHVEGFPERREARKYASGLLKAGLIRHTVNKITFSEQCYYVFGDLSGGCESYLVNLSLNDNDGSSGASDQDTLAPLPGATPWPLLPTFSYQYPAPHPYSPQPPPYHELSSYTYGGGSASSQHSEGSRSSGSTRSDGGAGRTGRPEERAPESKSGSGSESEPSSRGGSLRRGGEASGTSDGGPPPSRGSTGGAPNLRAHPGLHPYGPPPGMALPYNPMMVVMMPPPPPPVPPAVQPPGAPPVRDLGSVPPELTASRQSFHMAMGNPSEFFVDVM
# B3: Segment polarity protein dishevelled homolog DVL-2 (Homo sapiens), O14641 (parent)
# chain: B2 partner
# B4: E3 ubiquitin-protein ligase SMURF2 (Mus musculus), A2A5Z6 (parent)
# chain: B1 chain
# partner: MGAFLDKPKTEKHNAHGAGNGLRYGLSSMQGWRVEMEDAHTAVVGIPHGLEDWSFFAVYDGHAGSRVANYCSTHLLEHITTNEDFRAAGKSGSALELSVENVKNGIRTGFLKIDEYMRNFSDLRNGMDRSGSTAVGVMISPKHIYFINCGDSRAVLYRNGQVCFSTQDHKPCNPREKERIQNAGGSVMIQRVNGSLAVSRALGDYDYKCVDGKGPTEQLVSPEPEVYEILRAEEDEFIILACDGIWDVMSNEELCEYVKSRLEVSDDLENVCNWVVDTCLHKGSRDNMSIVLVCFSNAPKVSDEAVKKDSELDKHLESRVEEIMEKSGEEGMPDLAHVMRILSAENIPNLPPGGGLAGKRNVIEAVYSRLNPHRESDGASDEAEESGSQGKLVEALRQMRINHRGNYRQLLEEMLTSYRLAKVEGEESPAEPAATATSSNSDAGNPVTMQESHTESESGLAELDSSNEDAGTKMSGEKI
# B5: E3 ubiquitin-protein ligase SMURF2 (Mus musculus), A2A5Z6 (parent)
# chain: B1 chain
# partner: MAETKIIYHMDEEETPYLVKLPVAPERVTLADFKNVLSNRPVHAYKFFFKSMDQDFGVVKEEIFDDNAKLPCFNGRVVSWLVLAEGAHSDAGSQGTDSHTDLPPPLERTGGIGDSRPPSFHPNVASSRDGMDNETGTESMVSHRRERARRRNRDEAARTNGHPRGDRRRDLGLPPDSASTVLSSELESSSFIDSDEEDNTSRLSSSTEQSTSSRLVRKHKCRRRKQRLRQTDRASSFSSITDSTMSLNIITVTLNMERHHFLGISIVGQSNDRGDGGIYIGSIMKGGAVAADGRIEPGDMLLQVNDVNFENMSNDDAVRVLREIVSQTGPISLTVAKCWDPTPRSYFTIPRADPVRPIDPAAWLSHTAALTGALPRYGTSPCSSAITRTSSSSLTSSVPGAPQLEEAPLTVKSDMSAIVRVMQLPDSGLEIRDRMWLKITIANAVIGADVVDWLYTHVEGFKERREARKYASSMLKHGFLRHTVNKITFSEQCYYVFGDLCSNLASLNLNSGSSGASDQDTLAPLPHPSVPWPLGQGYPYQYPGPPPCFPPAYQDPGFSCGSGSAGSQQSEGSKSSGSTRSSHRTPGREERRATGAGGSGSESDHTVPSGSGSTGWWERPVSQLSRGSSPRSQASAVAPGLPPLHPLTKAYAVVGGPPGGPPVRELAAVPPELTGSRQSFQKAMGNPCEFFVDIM
# B6: E3 ubiquitin-protein ligase SMURF2 (Mus musculus), A2A5Z6 (parent)
# chain: B1 chain
# partner: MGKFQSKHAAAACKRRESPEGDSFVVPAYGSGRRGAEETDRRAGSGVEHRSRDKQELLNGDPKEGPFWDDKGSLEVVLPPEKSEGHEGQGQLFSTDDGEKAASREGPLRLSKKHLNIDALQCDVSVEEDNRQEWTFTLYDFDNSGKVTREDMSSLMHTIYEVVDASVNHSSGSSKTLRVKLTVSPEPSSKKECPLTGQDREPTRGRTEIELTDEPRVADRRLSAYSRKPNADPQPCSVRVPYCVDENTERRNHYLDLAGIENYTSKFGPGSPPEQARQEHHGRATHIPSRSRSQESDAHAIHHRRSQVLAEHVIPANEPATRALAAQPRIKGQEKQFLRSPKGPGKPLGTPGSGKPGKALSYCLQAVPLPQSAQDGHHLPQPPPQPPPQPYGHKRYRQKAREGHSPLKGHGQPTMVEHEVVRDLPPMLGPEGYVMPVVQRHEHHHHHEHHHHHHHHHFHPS
# B7: E3 ubiquitin-protein ligase SMURF2 (Mus musculus), A2A5Z6 (parent)
# chain: B1 chain
# partner: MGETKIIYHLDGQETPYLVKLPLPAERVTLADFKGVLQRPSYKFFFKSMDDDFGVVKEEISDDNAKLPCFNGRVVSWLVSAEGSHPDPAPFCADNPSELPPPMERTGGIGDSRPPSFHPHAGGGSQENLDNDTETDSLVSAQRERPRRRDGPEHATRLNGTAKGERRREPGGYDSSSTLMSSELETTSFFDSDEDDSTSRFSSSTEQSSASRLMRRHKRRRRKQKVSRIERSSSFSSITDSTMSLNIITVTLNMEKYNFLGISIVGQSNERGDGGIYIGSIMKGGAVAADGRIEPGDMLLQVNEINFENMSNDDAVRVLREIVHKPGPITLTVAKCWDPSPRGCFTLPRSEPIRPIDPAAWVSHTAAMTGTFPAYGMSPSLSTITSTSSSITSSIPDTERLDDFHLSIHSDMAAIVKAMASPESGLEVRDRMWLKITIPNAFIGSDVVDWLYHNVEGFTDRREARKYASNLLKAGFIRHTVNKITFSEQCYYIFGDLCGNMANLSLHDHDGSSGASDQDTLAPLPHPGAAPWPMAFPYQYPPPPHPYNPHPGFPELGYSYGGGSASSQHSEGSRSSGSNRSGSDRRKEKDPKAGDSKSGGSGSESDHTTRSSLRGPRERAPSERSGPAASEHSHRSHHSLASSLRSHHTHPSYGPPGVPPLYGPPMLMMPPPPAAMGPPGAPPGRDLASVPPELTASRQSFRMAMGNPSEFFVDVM
# Variants of: B1
# Settings: with elav1_human ELAVL1, Q15717
# Sequence of elav1_human ELAVL1, Q15717 (Q15717 whole entry): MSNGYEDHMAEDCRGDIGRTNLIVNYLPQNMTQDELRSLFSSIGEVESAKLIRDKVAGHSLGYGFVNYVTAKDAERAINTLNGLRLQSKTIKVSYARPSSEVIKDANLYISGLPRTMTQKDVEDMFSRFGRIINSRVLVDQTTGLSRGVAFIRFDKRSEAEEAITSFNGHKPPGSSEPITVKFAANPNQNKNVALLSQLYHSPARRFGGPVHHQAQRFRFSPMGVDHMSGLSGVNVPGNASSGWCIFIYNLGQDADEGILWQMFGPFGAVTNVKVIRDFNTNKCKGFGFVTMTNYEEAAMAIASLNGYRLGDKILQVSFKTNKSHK
row,Variant,effect of a mutation on the interaction
1,C716A,decreasing interaction

# Variants of: B1
# Settings: with rac1_mouse Rac1, P63001
row,Variant,effect of a mutation on the interaction
1,C716A,decreasing interaction

# Variants of: B1
# Settings: with tp53b_mouse Tp53bp1, P70399
# Sequence of tp53b_mouse Tp53bp1, P70399 (P70399 whole entry): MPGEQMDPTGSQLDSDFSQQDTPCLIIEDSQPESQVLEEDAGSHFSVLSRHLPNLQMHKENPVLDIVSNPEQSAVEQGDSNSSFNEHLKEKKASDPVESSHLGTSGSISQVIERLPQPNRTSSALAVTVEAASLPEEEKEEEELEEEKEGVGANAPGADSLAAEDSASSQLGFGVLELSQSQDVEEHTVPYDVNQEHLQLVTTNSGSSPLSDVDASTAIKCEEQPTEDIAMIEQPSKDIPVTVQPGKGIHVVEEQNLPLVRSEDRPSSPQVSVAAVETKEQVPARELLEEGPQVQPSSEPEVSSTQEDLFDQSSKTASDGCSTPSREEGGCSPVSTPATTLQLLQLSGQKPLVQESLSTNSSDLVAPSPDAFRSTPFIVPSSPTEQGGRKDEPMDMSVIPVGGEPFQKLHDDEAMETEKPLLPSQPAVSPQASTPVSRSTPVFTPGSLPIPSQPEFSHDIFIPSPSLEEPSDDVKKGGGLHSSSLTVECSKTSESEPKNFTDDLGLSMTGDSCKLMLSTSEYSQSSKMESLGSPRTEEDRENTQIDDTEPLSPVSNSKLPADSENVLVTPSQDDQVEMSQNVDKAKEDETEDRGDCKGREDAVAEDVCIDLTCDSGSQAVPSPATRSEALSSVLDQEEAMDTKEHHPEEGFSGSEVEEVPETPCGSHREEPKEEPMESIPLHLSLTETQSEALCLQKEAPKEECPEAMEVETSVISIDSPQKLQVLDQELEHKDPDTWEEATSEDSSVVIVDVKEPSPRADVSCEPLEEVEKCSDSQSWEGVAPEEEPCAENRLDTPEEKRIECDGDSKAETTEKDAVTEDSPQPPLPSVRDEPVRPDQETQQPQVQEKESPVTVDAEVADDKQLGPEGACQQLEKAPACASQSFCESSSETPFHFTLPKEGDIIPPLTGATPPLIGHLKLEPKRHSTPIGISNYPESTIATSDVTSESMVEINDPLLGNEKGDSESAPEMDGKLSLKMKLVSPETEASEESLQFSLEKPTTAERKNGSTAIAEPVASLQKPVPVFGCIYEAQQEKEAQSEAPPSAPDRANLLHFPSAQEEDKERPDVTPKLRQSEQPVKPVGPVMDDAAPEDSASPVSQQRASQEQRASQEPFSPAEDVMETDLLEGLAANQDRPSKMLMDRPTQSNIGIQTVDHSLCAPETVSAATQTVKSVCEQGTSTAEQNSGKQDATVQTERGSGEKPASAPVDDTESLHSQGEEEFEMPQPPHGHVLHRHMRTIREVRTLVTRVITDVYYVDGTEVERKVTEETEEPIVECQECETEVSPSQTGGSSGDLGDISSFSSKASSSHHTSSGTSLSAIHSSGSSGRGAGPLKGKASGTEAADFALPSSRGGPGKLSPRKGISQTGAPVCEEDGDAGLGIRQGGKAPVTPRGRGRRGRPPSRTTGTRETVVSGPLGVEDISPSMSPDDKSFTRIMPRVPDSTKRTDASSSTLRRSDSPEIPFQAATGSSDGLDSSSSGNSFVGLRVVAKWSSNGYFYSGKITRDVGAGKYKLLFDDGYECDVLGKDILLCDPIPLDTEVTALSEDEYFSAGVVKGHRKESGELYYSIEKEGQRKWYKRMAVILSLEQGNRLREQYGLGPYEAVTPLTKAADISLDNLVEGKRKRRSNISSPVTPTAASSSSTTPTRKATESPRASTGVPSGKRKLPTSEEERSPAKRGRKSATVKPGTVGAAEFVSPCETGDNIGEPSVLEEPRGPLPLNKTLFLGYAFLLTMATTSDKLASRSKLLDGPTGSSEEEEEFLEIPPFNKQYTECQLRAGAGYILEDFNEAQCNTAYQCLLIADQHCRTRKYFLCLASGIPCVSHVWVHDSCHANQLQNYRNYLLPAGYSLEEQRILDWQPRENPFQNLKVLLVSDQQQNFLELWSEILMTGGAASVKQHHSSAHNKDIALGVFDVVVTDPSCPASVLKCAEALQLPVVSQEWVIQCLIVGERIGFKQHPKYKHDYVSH
row,Variant,effect of a mutation on the interaction
1,C716A,decreasing interaction

# Variants of: B2
# Settings: with dvl2_human DVL2, O14641
row,Variant,effect of a mutation on the interaction
1,C716A,decreasing interaction

# Variants of: B3
# Settings: with smuf2_mouse Smurf2, A2A5Z6
row,Variant,effect of a mutation on the interaction
1,E499G,decreasing interaction

# Variants of: B3
# Settings: with smuf2_mouse Smurf2, A2A5Z6
# Remark: another data set of the same source
row,Variant,effect of a mutation on the interaction
1,C501R,decreasing interaction

# Variants of: B4
# Settings: with ppm1b_human PPM1B
row,Variant,effect of a mutation on the interaction
1,C716A,decreasing interaction

# Variants of: B5
# Settings: with dvl1_mouse Dvl1, P51141
row,Variant,effect of a mutation on the interaction
1,C716A,decreasing interaction

# Variants of: B6
# Settings: with nkd2_mouse Nkd2, Q8VE28
row,Variant,effect of a mutation on the interaction
1,C716A,decreasing interaction

# Variants of: B7
# Settings: with dvl3_human DVL3, Q92997
row,Variant,effect of a mutation on the interaction
1,C716A,decreasing interaction
